These results are taken from patent publication US20030022263A1 (ST JUDE CHILDREN S RESEARCH HOSPITAL, published 2003).

In this assay the target is T1, endogenous eIF-4E of mouse fibroblasts (mouse, UniProt P63073 2-217).
T1 construct: mature
Put plainly: eIF-4E captured on a methyl-G column from mouse fibroblast lysates, Western blot for both proteins. (In general: Immunoblotting shows a protein as a band on a membrane.)

T1 sequence (P63073 2-217): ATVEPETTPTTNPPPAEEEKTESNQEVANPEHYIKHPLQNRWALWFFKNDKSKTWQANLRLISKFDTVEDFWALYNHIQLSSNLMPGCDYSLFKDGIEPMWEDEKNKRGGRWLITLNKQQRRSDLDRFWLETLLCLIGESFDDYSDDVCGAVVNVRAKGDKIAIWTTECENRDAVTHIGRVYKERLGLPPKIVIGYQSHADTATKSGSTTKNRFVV
Procedure: Fibroblasts from normal or AT mice were treated with (+) or without (−) insulin and total cellular and complexed eIF-4E and 4E-BP1 were examined by Western blot. […] The amount of 4E-BP1 bound to eIF-4E was examined by immunoprecipitating eIF-4E with a methyl-G column and then blotting for both proteins.

B1: endogenous 4E-BP1 of mouse fibroblasts (other, UniProt Q60876 2-117, looked up)
chain: SAGSSCSQTPSRAIPTRRVALGDGVQLPPGDYSTTPGGTLFSTTPGGTRIIYDRKFLMECRNSPVAKTPPKDLPAIPGVTSPTSDEPPMQASQSQLPSSPEDKRAGGEESQFEMDI
notes: mature
In the case of B1, the binding result was “binds”.
